According to US20140179547A1 (NOVIMMUNE S A, published 2014):

T1: human interferon gamma (hIFNγ) (human, UniProt P01579 24-166, limits assumed)
T1 construct: also called INFγ
T1 sequence (looked up): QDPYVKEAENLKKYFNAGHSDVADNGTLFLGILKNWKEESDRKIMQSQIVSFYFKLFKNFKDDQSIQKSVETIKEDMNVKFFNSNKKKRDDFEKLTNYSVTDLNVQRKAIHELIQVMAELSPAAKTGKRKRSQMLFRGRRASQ


Assays:
[1] = biological target: T1, human interferon gamma (hIFNγ); assay: SPR, Biacore 2000, IgG captured on anti-human IgG, antigen as analyte, 1:1 Langmuir fit
Experimental: The affinity and binding kinetics of monospecific anti-INFγ IgGλ, the anti-IL6RC IgGκ and the bispecific IgGκλ antibodies were characterized on a Biacore 2000 instrument (Biacore AB, Uppsala, Sweden). 200RU of a goat anti-human polyclonal IgG (ahIgG; Biacore) were immobilized by EDC/NHS chemistry on a CM5 Biacore chip. This surface was used to capture monospecific or bispecific human IgG. The surface was regenerated after each cycle by injection of 10 mM glycine pH=1.5 at 30 μL/min, for 30 s followed by 1 min of stabilization time in HBS-EP buffer. […] Similar affinity values were obtained for the monospecific antibodies and the bispecific IgGκλ antibodies.

[2] = biological target: T2, hIL6 Receptor Complex (IL-6/IL-6R receptor complex) (human, UniProt P08887 20-358; P05231 30-212, limits assumed); assay: SPR (Biacore), INFγ immobilised, IgGλ injected, then IL6RC injected
T2 construct: also called IL6RC; hIL6RC
Experimental: (§1) FIGS. 12A and 12B are a series of illustrations and graphs depicting SPR analysis of IgGκλ bispecific antibodies. In FIG. 12A, INFγ was immobilized at the surface of the Biacore chip and anti-IL6RC monospecific antibody ([…]), anti-INFγ monospecific antibody (IgGλ) and, anti-IL6RC/anti-INFγ bispecific antibody (IgGκλ) were injected on the surface followed by injection of IL6RC. In FIG. 12B, the anti-IL6RC/anti-INFγ bispecific antibody (IgGκλ) was immobilized on the chip surface and anti human-Kappa and anti-human Lambda antibodies were injected at the same concentration. The experiment was repeated inverting the order of antibody injection with identical results.
(§2) The capacity of the bispecific IgGκλ to interact with both targets simultaneously was tested by SPR. Biotinylated INFγ was immobilized on streptavidin coating CM5 Biacore chip. The monospecific and the bispecific antibodies were injected on this surface followed by injection of IL6RC. […] SPR was also used to assess the relative amounts of Kappa and Lambda light chains in the purified bispecific antibody. IgGκλ was directly immobilized via amine coupling on the surface of a CM5 Biacore chip and an anti-human CKappa antibody was injected followed by an anti-human CLambda antibody at the same concentration.

[3] = biological target: T1, human interferon gamma (hIFNγ); assay: SPR (Biacore), INFγ immobilised, IgG injected
Experimental: as §1, §2

Kd [1]	koff [1]	kon [1]	binding result [2]	binding result [3]	Binder
184 pM	0.000169 s⁻¹	919000 M⁻¹ s⁻¹	–	–	anti-IL6RC/anti-INFγ bispecific IgGκλ antibody (bispecific antibody, also called κλ-body; κλ body) heavy: not shown light 1: not shown light 2: NFMLTQPHSVSESPGKTVTISCTRSSGSIASNYVQWYQQRPGSSPTTVIYEDNQRPSGVPDRFSGSIDSSSNSASLTISGLKTEDEADYYCQSQSWDGNHIVFGGGTKLTVLGQPKAAPSVTLFPPSSEELQANKATLVCLISDFYPGAVTVAWKADSSPVKAGVETTTPSKQSNNKYAASSYLSLTPEQWKSHRSYSCQVTHEGSTVEKTVAPTECS
196 pM	0.000119 s⁻¹	608000 M⁻¹ s⁻¹	no binding	–	monospecific anti-INFγ IgGλ antibody (antibody, V domains shown, also called IgGλλ; mono λ) VH: not shown VL: NFMLTQPHSVSESPGKTVTISCTRSSGSIASNYVQWYQQRPGSSPTTVIYEDNQRPSGVPDRFSGSIDSSSNSASLTISGLKTEDEADYYCQSQSWDGNHIVFGGGTKLTVLG
–	–	–	–	no binding	monospecific anti-IL6RC IgGκ antibody (antibody, V domains shown, also called IgGκκ; mono κ) VH: not shown VL: EIVLTQSPATLSLSPGERATLSCRASQSVSSYLAWYQQKPGQAPRLLIYDASNRATGIPARFSGSGSGTDFTLTISSLEPEDFAVYYCQQWLPTTPATFGQGTKVEIKR
